According to the supplement of paper PMC9732359:
± gives the uncertainty stated by the source.

Experiment: protein stability index of a GFP-peptide fusion (yeast GPS) (PSI 1-4); higher = more stable; sorted into four equal gates, so the index is relative within each strain
How it was run: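 Plasmids in a pooled yeast library fused tiled 17-residue yeast protein peptides downstream of GFP and also expressed Cherry. Mid-log cultures grown without leucine were sorted into four equal gates by GFP/Cherry fluorescence ratio. Each gate's plasmids were PCR-amplified and Illumina-sequenced, and reads were matched to strains by barcodes. The protein stability index is derived by multiplying each gate's read frequency by its gate number and summing the results.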

| Sequence | protein stability index (doa10∆) | protein stability index (pdr5∆) | protein stability index (ubr1∆) | protein stability index (san1∆) |
| --- | --- | --- | --- | --- |
| SLDMNSMNKELIAIVSK [NUT1] | 1.56 ± 0.19 | 1.44 ± 0.13 | 1.19 ± 0.088 |  |
| SIEFAKREKRVFLKHSL [RPN6] | 3.24 ± 0.16 | 3.4 ± 0.17 | 2.7 ± 0.098 | 2.87 ± 0.11 |
| SKLSEHLNHYILLRYHH [YCG1] | 2.16 ± 0.067 | 1.73 ± 0.059 | 2.02 ± 0.062 | 1.82 ± 0.091 |
| TIGPYRARKDRMRVSVL [SSN3] | 3.19 ± 0.15 | 2.99 ± 0.085 | 3.12 ± 0.052 | 3.07 ± 0.083 |
| TLKKEWLKEYEDETLRR [YIL149C/MLP2] | 3.12 ± 0.21 | 3.2 ± 0.18 | 3.52 ± 0.12 |  |
| DYITEAVFKIVLQPLLP [SNU114] | 1.44 ± 0.043 | 1.31 ± 0.066 | 1.51 ± 0.055 | 1.38 ± 0.089 |
| KNGAQDLVLQILEDTAT [RRI2] | 3.37 ± 0.08 | 3.3 ± 0.095 | 3.18 ± 0.072 | 3.33 ± 0.054 |
| EYIIAAIRKAPHNSKSL [RPN3] | 2.79 ± 0.067 | 2.76 ± 0.061 | 2.68 ± 0.06 | 2.64 ± 0.045 |
| AVKLGDLKKFTSTITKY [RPN3] | 2.1 ± 0.056 | 2.51 ± 0.044 | 2.56 ± 0.035 | 2.27 ± 0.066 |
| FALPAGSPKSATSKTSE [CDC53] | 2.9 ± 0.17 | 2.92 ± 0.13 |  |  |
| TVVISQKKVPDKLLDPT [SCL1] | 2.85 ± 0.1 | 2.31 ± 0.085 | 2.86 ± 0.068 | 3.23 ± 0.064 |
| DENKDDELVKLLLDNGF [SRP68] | 3.05 ± 0.11 | 3.4 ± 0.086 | 3.31 ± 0.094 | 3.36 ± 0.12 |
| SNSNVTNPSSIFGGAGG [YOR098C/NUP1] | 2.89 ± 0.049 | 2.77 ± 0.05 | 2.87 ± 0.045 | 2.29 ± 0.052 |
| LPYPTYWSDKKADTDTL [SNF5] | 2.91 ± 0.11 | 2.92 ± 0.11 | 2.88 ± 0.059 | 3.1 ± 0.07 |
| PFLHLRKKTPAGDWKYD [FAS2] | 3.2 ± 0.29 | 3.32 ± 0.2 | 3.08 ± 0.21 | 2.54 ± 0.24 |
| EVRRAAMLNLINDNNTR [YCG1] | 3.32 ± 0.12 | 3.41 ± 0.11 | 3.13 ± 0.1 | 2.94 ± 0.11 |
| QFINLAGYKKLGLKFDD [QCR7] | 2.43 ± 0.2 | 3.61 ± 0.14 |  |  |
| ALTVQEVLNRVASRHPS [YDL116W/NUP84] | 3.1 ± 0.086 | 3.15 ± 0.073 | 3.3 ± 0.047 | 3.12 ± 0.043 |
| SKLSKNISFYKLHVNWN [SIN4] | 2.04 ± 0.076 | 1.79 ± 0.071 | 2.04 ± 0.06 | 2.02 ± 0.11 |
| LDKFTDGGLFTLFVRDQ [QCR2] | 2.98 ± 0.093 | 3.14 ± 0.07 | 3.31 ± 0.054 | 3.19 ± 0.055 |
| NFESISARSSVHESLVT [SRB8] | 2.49 ± 0.052 | 2.1 ± 0.039 | 2.26 ± 0.027 | 2.17 ± 0.062 |
| ILNSYGVLKPDITFFGE [SIR2] | 3.27 ± 0.069 | 3.13 ± 0.072 | 3.31 ± 0.062 | 3.21 ± 0.049 |
| LQPLEEGLIIDTDKLPI [SIN4] | 2.73 ± 0.097 | 2.79 ± 0.074 | 2.96 ± 0.061 | 2.75 ± 0.066 |
| TKGMITNLQRNVDRLYK [NUT2] | 3.47 ± 0.29 | 3.35 ± 0.18 | 3.24 ± 0.16 | 2.69 ± 0.24 |
| GIQEVVHNTNSFIISSL [NUT1] | 2.12 ± 0.074 | 2.46 ± 0.059 | 2.54 ± 0.066 | 2.04 ± 0.087 |
| MVNIGLHNLNEYQIVYY [RGR1] | 1.65 ± 0.14 | 2.56 ± 0.1 | 1.43 ± 0.27 | 2.11 ± 0.11 |

| Sequence | protein stability index (doa10∆) | protein stability index (pdr5∆) | protein stability index (ubr1∆) | protein stability index (san1∆) |
| --- | --- | --- | --- | --- |
| MAYTSHLSSKTGLHFGR [QCR10] | 3.08 ± 0.16 | 2.78 ± 0.087 | 2.76 ± 0.066 | 2.69 ± 0.089 |
| QESSSTLSTHSTTTSVN [SIN4] | 3.04 ± 0.04 | 3.12 ± 0.037 | 3.132 ± 0.029 | 3.12 ± 0.028 |
| AVNMTQNIMTLPDGKNG [MED6] | 2.79 ± 0.11 | 3.04 ± 0.056 | 3.07 ± 0.062 | 2.67 ± 0.059 |
| NDIPQTESPLKTVDSSI [SSN2] | 2.99 ± 0.071 | 3.01 ± 0.055 | 3.03 ± 0.032 | 2.81 ± 0.061 |
| VAFDNINTHIETLAYNS [SNF2] | 2.56 ± 0.1 | 2.85 ± 0.074 | 1.99 ± 0.058 | 2.5 ± 0.063 |
| VCLMQISTRERDYLVDT [RRP6] | 3.3 ± 0.22 | 3.4 ± 0.16 | 2.99 ± 0.089 | 3.49 ± 0.088 |
| AEEFVAGVSHGTLGEIF [SMX3] |  |  | 3.57 ± 0.28 |  |
| KESAVISKQKSKLDYIF [SMC1] | 3.04 ± 0.18 | 2.81 ± 0.11 | 2.98 ± 0.12 | 3.05 ± 0.11 |
| PVSCIIQNDEEYDTPAL [PRP8] | 1.79 ± 0.1 | 2.73 ± 0.077 | 1.22 ± 0.086 | 1.92 ± 0.093 |
| DESLKDEATVPNTRDAE [SWI3] | 3.16 ± 0.074 | 3.31 ± 0.082 | 3.14 ± 0.077 | 3.19 ± 0.13 |
| PIPDARNAALRAKAEAA [SCL1] | 2.39 ± 0.14 | 2.69 ± 0.11 | 2.34 ± 0.092 | 2.44 ± 0.13 |
| NETKKRNFLETVELQVG [RPL1A] | 2.96 ± 0.24 | 2.72 ± 0.23 |  |  |
| LQCISQINQGVPSAKPL [SNF11] | 2.98 ± 0.092 | 1.95 ± 0.081 | 2.41 ± 0.074 | 2.5 ± 0.083 |
| KLKQQSSTDIPSYTHVL [RRI1] | 2.29 ± 0.034 | 2.48 ± 0.04 | 2.49 ± 0.035 | 2.52 ± 0.045 |
| DEGKEIPATIFDKVIYH [TAF14] | 3.13 ± 0.077 | 3.14 ± 0.059 | 3.02 ± 0.056 | 3.15 ± 0.041 |
| VPKLESSRTKFWSFLDS [YJL039C/NUP192] | 1.61 ± 0.29 |  | 1.44 ± 0.096 | 1.61 ± 0.13 |
| SKKAEKTGTKPAAVFAE [RPL4B] | 2.52 ± 0.068 | 2.8 ± 0.084 | 2.75 ± 0.061 | 2.44 ± 0.072 |
| SFNIPRLTFKPWVVYLQ [YMR129W/POM152] | 1.2 ± 0.055 | 1.29 ± 0.055 | 1.04 ± 0.042 | 1.09 ± 0.1 |
| GEVMKELSEEKYIVKAS [RPT4] | 3.25 ± 0.061 | 3.38 ± 0.072 | 3.3 ± 0.042 | 3.41 ± 0.043 |
| QQLRTWKRQISYFLKLL [SRB8] | 1.63 ± 0.049 | 2.18 ± 0.066 | 1.91 ± 0.039 | 1.93 ± 0.088 |
| GMYALRERRIHVTQEDF [RPT6] | 1.81 ± 0.074 | 1.94 ± 0.054 | 2.49 ± 0.1 | 1.59 ± 0.099 |
| ERQMNFLTNELIRLQME [SWI3] | 3.07 ± 0.11 | 3.12 ± 0.072 | 3.09 ± 0.069 | 3.22 ± 0.048 |
| VRYGSSLRRQVKKLEIQ [RPL43A] |  |  |  | 2.55 ± 0.2 |
| EMVENSSENNQIILAYI [SRP68] | 3.21 ± 0.1 | 3.11 ± 0.088 | 3.35 ± 0.062 | 2.77 ± 0.08 |
| NNNNSTRPQMPSRTRET [GRR1] | 2.937 ± 0.027 | 3.108 ± 0.027 | 3.033 ± 0.021 | 2.949 ± 0.024 |
| SAGNDKMVKAWNLNQFQ [ASC1] | 2.46 ± 0.044 | 2.38 ± 0.054 | 2.36 ± 0.041 | 2.15 ± 0.065 |
